The values that follow come from patent US8629241B2, “Alpha helical mimics, their uses and methods for their production” (The University of Queensland, priority 2004, dated 2014).

Read-outs that look alike come from different tables or passages of the source. Bridges are numbered along the chain shown (N, C = ends). Where no end group is shown, it is not given here. [ ]: non-standard residue; d: D form. NPhGly = O=C(O)CNc1ccccc1

This data set is classed as physicochemical. The settings on record: for percentage helicities: equation 2b with k˜4, assuming 8 has 100% helicity; for helicity by CD compared to native agonist and antagonist sequences: versus F/Nphe-[…], FIG. 12; for [θ]207: molar elipticity at 207 nm; for θ222/θ208 / [θ]192 / [θ]208 / [θ]222: Table 8; for [θ]192 / [θ]208 / [θ]222: one or more cyclic pentapeptide modules versus linear peptides; for % helicity: fH × 100, [θ∞H]222 = −44000, k = 2.6. How it is done:
Circular Dichroism (CD) was performed on peptides having SEQ ID NOs: 8 to 14 and 18 to 31, using methods described above. The molar elipticities at 222 nm, 208 nm and 190 nm, ratios of elipticities at 222 nm/208 nm and relative helicity are shown in Tables 6 and 7.
Assuming that mean alpha helix content (fH) is linearly related to elipticity at 222 nm, or in our case 215 nm ([θ]obs215), then the equation for calculating helix content is: fH=([θ]obs215−[θ]C)/([θ]∞215−[θ]C) (1) Luo and Baldwin^22 determined that the random coil ([θ]C) and infinite alpha helix ([θ]∞222) molar elipticities are temperature dependent based on the equations: [θ]C=2220−53T (2a) [θ]∞215=(−44000+250T)(1−k/Np) (2b) where T is temperature in degrees Celsius, Np is the number of peptide units, and k is a finite length correction.
CD was performed on peptides having one [SEQ ID NO: 8] or more than one modular macrocycle [SEQ ID NOs: 46 and 47], as compared with corresponding linear peptides, Ac[KARAD]n—NH2 where n=1 [SEQ ID NO: 14], n=2 [SEQ ID NO: 54] and n=3 [SEQ ID NO: 55]. The molar elipticities at 222 nm, 208 nm and 190 nm, ratios of elipticities at 222 nm/208 nm and percentage helicity are shown in Table 8.
CD experiments were performed on a Jasco Model J-710 spectropolarimeter which was routinely calibrated with (1S)-(+)-10-camphorsulfonic acid. Temperature control was achieved using a Neslab RTE-111 circulating water bath. Spectra were recorded in a 0.1 cm Jasco cell between 310-185 nm at 50 nm/min with a band width of 1.0 nm, response time of 2 sec, resolution step width of 0.1 nm and sensitivity of 20, 50 or 100 mdeg. Each spectrum represents the average of 5 scans with smoothing to reduce noise. Peptide samples for CD spectroscopy were dissolved in distilled water (˜1 mg/mL). Each stock solution was diluted to a final concentration of 50 μM in 10 mM sodium phosphate buffer (pH7.4), with or without additives (2,2,2-trifluoroethanol (TFE) or guanidine.HCl). Guanidine.HCl denaturation experiments were performed according to Creighton^105.
1D ^1H NMR spectra were then recorded with presaturation and a relaxation delay (d1) of 30 seconds to allow for full relaxation of peptide and DSS^1H signals to facilitate accurate integration of proton signals with S/N>250:1. This method provides reproducible concentrations within ±2%.
CD data in ellipticity was converted to mean peptide ellipticity using the equation: [θ]=θ/(10×C×Np×1) where θ is the ellipticity in millidegrees, C is the peptide molar concentration (M), 1 is the cell path length (cm), and Np is the number of peptide units (ie. pentapeptides […], 10 & 11 Np=5, 12 Np=4.)
Relative helicities were employed to allow scaling of compounds by dividing the [θ]obs215(8)/[θ]obs215(x) for pentapeptides, and [θ]obs215(24)/[θ]obs215(x) for hexapeptides.

[1] abbreviates: cyclic hexapeptides 23-31, 10 mM phosphate buffer pH 7.4 at 25° C.
The mark [2] stands for this setting: θ215 relative to SEQ ID NO: 24, 10 mM phosphate buffer pH 7.4 at 25° C.
Where [3] appears, read: [θ]215 relative to SEQ ID NO: 8, 10 mM phosphate buffer, pH 7.4, 25° C.
Where [4] appears, read: molar elipticity at 190 nm, 10 mM phosphate buffer, pH 7.4, 25° C.
The mark [5] stands for this setting: 10 mM phosphate buffer, pH 7.4, 25° C.
Where [6] appears, read: molar elipticity at 215 nm, 10 mM phosphate buffer, pH 7.4, 25° C.
The mark [7] stands for this setting: ratio of elipticities, 10 mM phosphate buffer, pH 7.4, 25° C.

Regarding “Ac-(cyclo-2,6)-R[KALAD]-NH2 (Ac-RKALAD-NH2; lactam 2-6; SMILES CC(=O)N[C@@H](CCCNC(=N)N)C(=O)N[C@H]1CCCCNC(=O)C[C@@H](C(N)=O)NC(=O)[C@H](C)NC(=O)[C@H](CC(C)C)NC(=O)[C@H](C)NC1=O) [SEQ ID NO: 24]”, the percentage helicities is reported as 91%. Under setting [1], the “Molar ellipticity at 207 nm” value is −15165 deg.cm^2.dmol^−1.residue^−1, the “[θ]190” value was 46621 deg.cm^2.dmol^−1.residue^−1, the “[θ]215” value is on record as −14798 deg.cm^2.dmol^−1.residue^−1 and the θ215/θ207 is 0.98. In addition, the “Relative helicity” value under setting [2] came to 1.00.
“Ac-(cyclo-2,6)-R[KAMAD]-NH2 (Ac-RKAMAD-NH2; lactam 2-6; SMILES CSCC[C@@H]1NC(=O)[C@H](C)NC(=O)[C@@H](NC(=O)[C@H](CCCNC(=N)N)NC(C)=O)CCCCNC(=O)C[C@@H](C(N)=O)NC(=O)[C@H](C)NC1=O) [SEQ ID NO: 25]” returned a percentage helicities of 73%. For the same substance, under setting [1], the “Molar ellipticity at 207 nm” value is recorded as −12296 deg.cm^2.dmol^−1.residue^−1, the “[θ]190” value is listed as 38464 deg.cm^2.dmol^−1.residue^−1, the “[θ]215” value is listed as −11853 deg.cm^2.dmol^−1.residue^−1 and the θ215/θ207 turned out to be 0.96. Also, the “Relative helicity” value under setting [2] is given as 0.80.
For the substance “Ac-(cyclo-2,6)-R[KAQAD]-NH2 (Ac-RKAQAD-NH2; lactam 2-6; SMILES CC(=O)N[C@@H](CCCNC(=N)N)C(=O)N[C@H]1CCCCNC(=O)C[C@@H](C(N)=O)NC(=O)[C@H](C)NC(=O)[C@H](CCC(N)=O)NC(=O)[C@H](C)NC1=O) [SEQ ID NO: 26]”, the percentage helicities is reported as 70%. Under setting [1], the “Molar ellipticity at 207 nm” value is listed as −12279 deg.cm^2.dmol^−1.residue^−1, the “[θ]190” value is given as 36865 deg.cm^2.dmol^−1.residue^−1, the “[θ]215” value is given as −11394 deg.cm^2.dmol^−1.residue^−1 and the θ215/θ207 is 0.93. For the same substance, the “Relative helicity” value under setting [2] came to 0.84.
On to “Ac-(cyclo-2,6)-R[KGGGD]-NH2 (Ac-RKGGGD-NH2; lactam 2-6; SMILES CC(=O)N[C@@H](CCCNC(=N)N)C(=O)N[C@H]1CCCCNC(=O)C[C@@H](C(N)=O)NC(=O)CNC(=O)CNC(=O)CNC1=O) [SEQ ID NO: 31]”, for which, under setting [1], the “Molar ellipticity at 207 nm” value was −4868 deg.cm^2.dmol^−1.residue^−1, the “[θ]190” value is listed as −1593 deg.cm^2.dmol^−1.residue^−1, the “[θ]215” value is given as −2131 deg.cm^2.dmol^−1.residue^−1 and the θ215/θ207 stood at 0.44. Besides, under setting [2], the “Relative helicity” value stood at 0.14.
The like results for “Ac-(cyclo-2,6)-R[KGSAD]-NH2 (Ac-RKGSAD-NH2; lactam 2-6; SMILES CC(=O)N[C@@H](CCCNC(=N)N)C(=O)N[C@H]1CCCCNC(=O)C[C@@H](C(N)=O)NC(=O)[C@H](C)NC(=O)[C@H](CO)NC(=O)CNC1=O) [SEQ ID NO: 29]” were, in that order, −6975 deg.cm^2.dmol^−1.residue^−1, 12831 deg.cm^2.dmol^−1.residue^−1, −4810 deg.cm^2.dmol^−1.residue^−1, 0.69 and 0.32.
For “Ac-(cyclo-2,6)-R[KSSSD]-NH2 (Ac-RKSSSD-NH2; lactam 2-6; SMILES CC(=O)N[C@@H](CCCNC(=N)N)C(=O)N[C@H]1CCCCNC(=O)C[C@@H](C(N)=O)NC(=O)[C@H](CO)NC(=O)[C@H](CO)NC(=O)[C@H](CO)NC1=O) [SEQ ID NO: 30]”, under setting [1], the “Molar ellipticity at 207 nm” value is −8017 deg.cm^2.dmol^−1.residue^−1, the “[θ]190” value is 6827 deg.cm^2.dmol^−1.residue^−1, the “[θ]215” value is on record as −4432 deg.cm^2.dmol^−1.residue^−1 and the θ215/θ207 is listed as 0.55. For the same substance, the “Relative helicity” value under setting [2] is 0.30.
Take “Cyclo(6-10, 11-15)-FGGFT[KARKD][KRKLD]-NH2 (FGGFTKARKDKRKLD; bicyclic lactam bridges, C-terminal amide) [SEQ ID NO: 76]”: the “helicity by CD compared to native agonist and antagonist sequences” value was “increase helicity”.
In the case of “Cyclo(6-10, 11-15)-NpheGGFT[KARKD][KRKLD]-NH2 ([NPhGly]GGFTKARKDKRKLD-NH2; lactam 6-10, 11-15; N-terminus assumed; SMILES CC(C)C[C@@H]1NC(=O)[C@H](CCCCN)NC(=O)[C@H](CCCNC(=N)N)NC(=O)[C@@H](NC(=O)[C@@H]2CC(=O)NCCCC[C@H](NC(=O)[C@@H](NC(=O)[C@H](Cc3ccccc3)NC(=O)CNC(=O)CNC(=O)CNc3ccccc3)[C@@H](C)O)C(=O)N[C@@H](C)C(=O)N[C@@H](CCCNC(=N)N)C(=O)N[C@@H](CCCCN)C(=O)N2)CCCCNC(=O)C[C@@H](C(N)=O)NC1=O) [SEQ ID NO: 77]”, the “helicity by CD compared to native agonist and antagonist sequences” value is “increase helicity”.
On to “H-(cyclo-1,5)-[KARAD]-NH2 (H-KARAD-NH2; lactam 1-5; SMILES C[C@@H]1NC(=O)[C@H](CCCNC(=N)N)NC(=O)[C@H](C)NC(=O)[C@@H](N)CCCCNC(=O)C[C@@H](C(N)=O)NC1=O) [SEQ ID NO: 21]”, for which the Relative helicity is recorded as 0.06 under setting [3] and 0.2 ([θ]215 relative to SEQ ID NO: 8, in 0.001 M NaOH pH 10). Moreover, the “[θ]190” value is reported as 1355 deg.cm^2.dmol^−1.residue^−1 under setting [4] and 8452 deg.cm^2.dmol^−1.residue^−1 (molar elipticity at 190 nm, in 0.001 M NaOH pH 10). Further, the “[θ]207” value is on record as −2228 deg.cm^2.dmol^−1.residue^−1 under setting [5] and −3327 deg.cm^2.dmol^−1.residue^−1 (in 0.001 M NaOH pH 10). In addition, the “[θ]215” value is recorded as −812 deg.cm^2.dmol^−1.residue^−1 under setting [6] and −2590 deg.cm^2.dmol^−1.residue^−1 (molar elipticity at 215 nm, in 0.001 M NaOH pH 10). Besides, the θ215/θ207 by setting is: under setting [7], 0.36; (ratio of elipticities, in 0.001 M NaOH pH 10) 0.78.
Under setting [3], “H-(cyclo-1,5)-[KARAD]-OH (H-KARAD-OH; lactam 1-5; SMILES C[C@@H]1NC(=O)[C@H](CCCNC(=N)N)NC(=O)[C@H](C)NC(=O)[C@@H](N)CCCCNC(=O)C[C@@H](C(=O)O)NC1=O) [SEQ ID NO: 22]” displayed a Relative helicity of 0.08. Further, the “[θ]190” value under setting [4] is listed as −4966 deg.cm^2.dmol^−1.residue^−1. For the same substance, under setting [5], the “[θ]207” value is reported as −5737 deg.cm^2.dmol^−1.residue^−1. The “[θ]215” value under setting [6] was −1033 deg.cm^2.dmol^−1.residue^−1. Further, the θ215/θ207 under setting [7] is 0.18.
As for “SEQ ID NO: 55: linear peptide Ac(KARAD)n-NH2 where n=3 (Ac-KARADKARADKARAD-NH2)”, the θ222/θ208 is 0.39, the “[θ]192” value is given as −8024 degcm^2dmol^−1residue^−1, the “[θ]208” value was −9788 degcm^2dmol^−1residue^−1 and the “[θ]222” value was −3852 degcm^2dmol^−1residue^−1. Moreover, the “% helicity” value amounted to 7%.
For the substance “cyclo(1-5, 6-10, 11-15)-Ac-[KARADKARADKARAD]-NH2 (Ac-KARADKARADKARAD-NH2; lactam 1-5, 6-10, 11-15; SMILES CC(=O)N[C@H]1CCCCNC(=O)C[C@@H](C(=O)N[C@H]2CCCCNC(=O)C[C@@H](C(=O)N[C@H]3CCCCNC(=O)C[C@@H](C(N)=O)NC(=O)[C@H](C)NC(=O)[C@H](CCCNC(=N)N)NC(=O)[C@H](C)NC3=O)NC(=O)[C@H](C)NC(=O)[C@H](CCCNC(=N)N)NC(=O)[C@H](C)NC2=O)NC(=O)[C@H](C)NC(=O)[C@H](CCCNC(=N)N)NC(=O)[C@H](C)NC1=O) [SEQ ID NO: 47]”, the θ222/θ208 turned out to be 1.34, the “[θ]192” value was 100811 degcm^2dmol^−1residue^−1, the “[θ]208” value is reported as −23842 degcm^2dmol^−1residue^−1 and the “[θ]222” value is −31987 degcm^2dmol^−1residue^−1. Further, the “% helicity” value was 88%.
